Data on one substance can be found in patent publication US6660837B1, “Modified protein derived from protein kinase N” (Kirin Beer Kabushiki Kaisha, priority 1995, dated 2003).

This test addresses T1, carboxyl-terminal catalytic region of PKN (Homo sapiens, UniProt Q16512).
T1 construct: made in house; host or cells: in vitro translation in reticulocyte lysate (Promega)
Briefly: In vitro binding, regulatory with catalytic region of PKN (GST pull-down). From the text:
Truncated human PKN was made as follows; expression vector pPKN-N for amino-terminal region of PKN was made by digesting phPKN-H4 (human PKN cDNA inserted in pBluescript II SK) (Mukai, H. & Ono, Y., Biochem. Biophys. Res. Commun. 199, 897-904 (1994)) with BstEII, and filling-in both the ends with T4 DNA polymerase, and self-ligation. The resulting plasmid codes for amino acid residues of PKN from 1 to 474 in SEQ ID NO: 1. cDNA insert from this plasmid was cloned into pRc/CMV (Invitrogen Corp.). Fragment coding for the amino acids 614-942, in SEQ ID NO: 1, containing the catalytic domain of human PKN was made by PCR amplification. Expression vector pPKN-C for the carboxyl-terminal region of PKN was made by subcloning this fragment into pRc/CMV. These plasmids were linealized by cutting with XbaI, and cRNA was transcribed using T7 RNA polymerase. cRNA was translated in a […] reticulocyte lysate (Promega) in the presence of [^35S] methionine. […]
In vitro translated PKN-N or PKN-C (2.5 μl) was mixed with 5 μg of each GST-PKN-N or GST-PKN-C fusion protein or 25 μg of GST alone in 400 μl of GST binding buffer [20 mM Tris/HCl (pH 7.5), 0.5 mM DTT, 150 mM NaCl, 0.05% Triton X-100, 1 mM EDTA, 1 μg/ml leupeptin] and incubated for 1 hr at 4° C. […] Quantification of the binding reactions was carried out by a BAS 1000 bio-imaging analyzer (FUJI).

T1 sequence (Q16512 614-942): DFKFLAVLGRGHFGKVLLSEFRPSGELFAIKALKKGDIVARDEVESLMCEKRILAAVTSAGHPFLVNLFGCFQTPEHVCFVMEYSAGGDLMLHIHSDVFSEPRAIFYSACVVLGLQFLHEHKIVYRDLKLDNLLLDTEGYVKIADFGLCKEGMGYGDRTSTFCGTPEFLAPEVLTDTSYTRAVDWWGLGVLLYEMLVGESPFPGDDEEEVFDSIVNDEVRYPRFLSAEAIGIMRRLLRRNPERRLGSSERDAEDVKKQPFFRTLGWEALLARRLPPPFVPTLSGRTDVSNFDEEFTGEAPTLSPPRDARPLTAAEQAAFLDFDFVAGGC

In the case of “N-terminal region of PKN: N-terminal regulatory region of human PKN: 1-540 (PKNN1) in two-hybrid and GST fusions, 1-474 when in vitro translated”, the “binding to carboxyl-terminal catalytic region of PKN in vitro” value is on record as “directly binds”.
